Results on eleven molecules are retold here after patent US20180305431A1 (Novo Nordisk, published 2018).

In assay [1] the target is T1, membrane-associated human IGF-1R (plasma membranes of BHK cells stably transfected with the human IGF-IR … (human, UniProt P08069 31-1367)).
T1 construct: whole, on cells; Receptor in purified plasma membranes, not on intact cells; also called hIGF1R; insulin-like growth factor 1 receptor
Description: SPA competition vs [125I-Tyr31]-human IGF-1, membrane hIGF-1R, 0.1% HSA. The protocol: The relative binding affinity for either of the membrane-associated human IR-A, IR-B or IGF-1R is determined by competition binding in a SPA setup. IR assays are performed in duplicate in 96-well OptiPlates (Perkin-Elmer Life Sciences). […] Assays are terminated by centrifugation of the plate at 2000 rpm for 2 minutes and bound radioactivity quantified by counting on a TopCount NXT (Perkin-Elmer Life Sciences).
IGF-1R assays are conducted essentially as for the IR binding assays except that membrane-associated IGF-1R and 50 pM [¹²5-Tyr31]-human IGF-1 were employed.

Assay [2] deals with insulin receptor on primary rat adipocytes (rat) (UniProt P15127). Description: cell-based or functional assay.
The target in assay [3] is membrane-associated human IR-A (plasma membranes of BHK cells stably transfected with the human IR-A insert) (human) (UniProt P06213). Description: SPA competition vs [125I-A14Y]-human insulin, membrane hIR-A, 0.1% HSA.
The target of assay [4] is membrane-associated human IR-B (plasma membranes of BHK cells stably transfected with the human IR-B insert) (human) (UniProt P06213). Description: SPA competition vs [125I-A14Y]-human insulin, membrane hIR-B, 0.1% HSA.
The target of assay [5] is T2, solubilised human IR-A (semipurified by wheat germ agglutinin chromatography from baby hamster kidney (BHK) … (human, UniProt P06213-2 28-1370)).
T2 construct: mature; Detergent-solubilised holoreceptor captured by anti-IR mouse antibody 83-7 on SPA beads; the precursor is processed into alpha and beta chains; also called hIRA; human insulin receptor (IR), A isoform
Description: SPA competition vs [125I-A14Y]-human insulin, solubilised hIR-A, 1.5% HSA.

Assay [6] addresses T2, solubilised human IR-A (semipurified by …). Description: SPA competition vs [125I-A14Y]-human insulin, solubilised hIR-A, 0% HSA.

Chain of insulin receptor on primary rat adipocytes (rat) (P15127 27-1383): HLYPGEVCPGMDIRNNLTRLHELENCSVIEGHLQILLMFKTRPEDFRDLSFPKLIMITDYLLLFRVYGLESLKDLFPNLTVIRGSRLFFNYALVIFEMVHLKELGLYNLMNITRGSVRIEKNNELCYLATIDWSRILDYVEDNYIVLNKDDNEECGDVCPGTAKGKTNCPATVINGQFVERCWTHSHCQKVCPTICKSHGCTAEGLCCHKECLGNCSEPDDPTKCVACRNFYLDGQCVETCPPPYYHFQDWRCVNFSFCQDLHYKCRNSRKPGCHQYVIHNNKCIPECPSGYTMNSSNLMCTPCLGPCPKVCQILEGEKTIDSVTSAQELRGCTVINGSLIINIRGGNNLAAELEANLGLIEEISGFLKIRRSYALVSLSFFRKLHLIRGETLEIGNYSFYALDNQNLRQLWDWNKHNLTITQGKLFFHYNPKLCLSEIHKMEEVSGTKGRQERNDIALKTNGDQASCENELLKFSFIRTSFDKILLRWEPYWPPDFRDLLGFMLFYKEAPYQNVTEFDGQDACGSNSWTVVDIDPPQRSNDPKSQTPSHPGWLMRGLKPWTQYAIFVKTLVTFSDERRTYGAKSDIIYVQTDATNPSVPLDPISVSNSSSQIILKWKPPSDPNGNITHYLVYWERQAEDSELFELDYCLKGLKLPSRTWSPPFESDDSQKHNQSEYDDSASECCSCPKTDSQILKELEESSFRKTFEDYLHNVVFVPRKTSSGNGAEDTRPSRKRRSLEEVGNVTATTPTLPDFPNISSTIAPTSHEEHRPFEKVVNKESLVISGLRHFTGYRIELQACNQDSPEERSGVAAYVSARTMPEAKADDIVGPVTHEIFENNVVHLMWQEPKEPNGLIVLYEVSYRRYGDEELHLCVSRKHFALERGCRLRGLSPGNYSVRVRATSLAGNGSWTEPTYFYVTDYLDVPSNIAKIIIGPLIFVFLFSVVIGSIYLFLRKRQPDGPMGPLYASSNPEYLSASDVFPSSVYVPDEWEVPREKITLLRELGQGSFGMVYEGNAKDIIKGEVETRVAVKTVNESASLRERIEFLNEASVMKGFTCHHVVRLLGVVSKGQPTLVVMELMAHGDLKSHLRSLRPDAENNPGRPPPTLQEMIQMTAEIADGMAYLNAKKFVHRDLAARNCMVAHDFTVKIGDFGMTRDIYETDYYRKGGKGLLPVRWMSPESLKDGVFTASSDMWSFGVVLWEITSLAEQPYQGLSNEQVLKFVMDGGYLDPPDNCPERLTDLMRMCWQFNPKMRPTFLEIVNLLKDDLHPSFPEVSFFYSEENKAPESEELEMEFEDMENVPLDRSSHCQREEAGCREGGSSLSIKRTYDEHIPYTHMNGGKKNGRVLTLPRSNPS
T2 sequence (P06213 other isoform, or with tags, fused parts or gaps limits assumed): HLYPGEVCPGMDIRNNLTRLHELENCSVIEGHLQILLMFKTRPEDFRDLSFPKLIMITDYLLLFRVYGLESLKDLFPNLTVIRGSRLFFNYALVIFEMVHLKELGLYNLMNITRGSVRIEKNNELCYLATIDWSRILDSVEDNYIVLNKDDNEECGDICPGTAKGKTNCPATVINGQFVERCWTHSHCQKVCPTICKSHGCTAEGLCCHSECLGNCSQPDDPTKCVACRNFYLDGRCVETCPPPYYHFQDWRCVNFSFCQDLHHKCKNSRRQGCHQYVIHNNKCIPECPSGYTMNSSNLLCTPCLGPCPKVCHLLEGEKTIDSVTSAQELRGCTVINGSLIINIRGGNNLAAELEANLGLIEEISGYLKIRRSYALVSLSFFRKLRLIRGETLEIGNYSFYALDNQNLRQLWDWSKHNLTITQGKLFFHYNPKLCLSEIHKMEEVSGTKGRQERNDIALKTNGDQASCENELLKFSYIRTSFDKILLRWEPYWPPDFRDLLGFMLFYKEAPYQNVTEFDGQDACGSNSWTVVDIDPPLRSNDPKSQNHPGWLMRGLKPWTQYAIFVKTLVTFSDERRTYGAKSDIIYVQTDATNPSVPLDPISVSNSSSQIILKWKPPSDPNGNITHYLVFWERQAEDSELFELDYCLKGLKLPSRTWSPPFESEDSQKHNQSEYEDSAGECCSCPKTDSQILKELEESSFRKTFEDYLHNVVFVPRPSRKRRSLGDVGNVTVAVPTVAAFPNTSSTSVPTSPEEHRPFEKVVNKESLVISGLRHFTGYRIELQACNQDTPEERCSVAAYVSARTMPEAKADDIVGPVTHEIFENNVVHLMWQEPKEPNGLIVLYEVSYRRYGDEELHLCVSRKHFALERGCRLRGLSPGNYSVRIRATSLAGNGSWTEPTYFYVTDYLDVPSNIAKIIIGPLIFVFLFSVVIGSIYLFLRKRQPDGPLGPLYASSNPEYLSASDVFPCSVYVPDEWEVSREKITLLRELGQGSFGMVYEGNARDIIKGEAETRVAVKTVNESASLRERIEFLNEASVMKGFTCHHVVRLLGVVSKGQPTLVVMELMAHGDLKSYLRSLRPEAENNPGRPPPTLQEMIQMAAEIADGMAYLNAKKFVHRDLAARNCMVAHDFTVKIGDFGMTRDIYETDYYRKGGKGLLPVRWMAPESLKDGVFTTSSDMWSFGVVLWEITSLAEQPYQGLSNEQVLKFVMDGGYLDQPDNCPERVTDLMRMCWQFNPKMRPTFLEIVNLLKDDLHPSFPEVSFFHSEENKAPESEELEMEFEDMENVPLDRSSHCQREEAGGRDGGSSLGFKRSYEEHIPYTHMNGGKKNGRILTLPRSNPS
Chain of membrane-associated human IR-B (plasma membranes of BHK cells stably transfected with the human IR-B insert) (human) (P06213 28-1382): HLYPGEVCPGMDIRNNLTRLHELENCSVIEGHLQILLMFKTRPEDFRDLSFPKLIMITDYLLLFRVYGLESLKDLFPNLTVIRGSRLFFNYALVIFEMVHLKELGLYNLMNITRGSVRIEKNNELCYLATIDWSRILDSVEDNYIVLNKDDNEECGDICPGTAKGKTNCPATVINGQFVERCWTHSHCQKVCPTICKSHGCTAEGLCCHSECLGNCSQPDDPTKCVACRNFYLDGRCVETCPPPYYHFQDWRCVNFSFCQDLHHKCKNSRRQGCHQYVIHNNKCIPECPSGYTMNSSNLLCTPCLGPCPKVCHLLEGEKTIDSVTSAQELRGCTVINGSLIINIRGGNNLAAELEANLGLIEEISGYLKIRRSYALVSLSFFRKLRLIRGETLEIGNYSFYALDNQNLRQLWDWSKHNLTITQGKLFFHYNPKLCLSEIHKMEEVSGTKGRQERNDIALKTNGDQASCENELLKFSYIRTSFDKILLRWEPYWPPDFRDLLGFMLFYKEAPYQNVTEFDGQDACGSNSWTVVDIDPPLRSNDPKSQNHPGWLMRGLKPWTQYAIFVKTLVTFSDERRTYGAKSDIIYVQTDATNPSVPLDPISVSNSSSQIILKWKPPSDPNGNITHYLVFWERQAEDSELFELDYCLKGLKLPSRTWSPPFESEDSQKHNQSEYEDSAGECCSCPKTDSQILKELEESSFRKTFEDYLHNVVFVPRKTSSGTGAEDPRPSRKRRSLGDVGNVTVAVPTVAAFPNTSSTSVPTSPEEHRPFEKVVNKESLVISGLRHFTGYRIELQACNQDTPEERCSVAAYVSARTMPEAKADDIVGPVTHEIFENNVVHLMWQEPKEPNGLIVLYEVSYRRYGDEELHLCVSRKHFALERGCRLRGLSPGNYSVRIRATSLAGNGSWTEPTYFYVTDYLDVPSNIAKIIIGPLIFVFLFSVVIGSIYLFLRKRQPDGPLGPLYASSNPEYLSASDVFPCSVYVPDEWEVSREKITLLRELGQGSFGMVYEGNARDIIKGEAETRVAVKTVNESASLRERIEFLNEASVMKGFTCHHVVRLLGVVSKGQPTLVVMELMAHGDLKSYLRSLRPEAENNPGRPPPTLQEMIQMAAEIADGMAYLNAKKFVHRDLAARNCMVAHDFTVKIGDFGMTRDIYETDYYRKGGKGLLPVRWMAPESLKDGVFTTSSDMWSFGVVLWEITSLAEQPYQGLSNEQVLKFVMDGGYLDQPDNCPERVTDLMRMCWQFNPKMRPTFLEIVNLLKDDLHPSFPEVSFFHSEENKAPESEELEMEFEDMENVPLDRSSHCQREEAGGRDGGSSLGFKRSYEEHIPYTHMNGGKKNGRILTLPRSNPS

B1: A8R, A22K(N(eps)tetradecanedioyl-4xgGlu), B3E, B26E, B27E, B28R, desB29, desB30 human insulin (ligand)
chain 1: GIVEQCCRSICSLYQLENYCNK
chain 2: FVEQHLCGSHLVEALYLVCGERGFFEER
modifications: not fully specified; Lys A22 acylated on N(eps) with tetradecanedioyl-4xgGlu
notes: Two-chain acylated insulin analogue; also called Ex. No. 19
On to B1, for which the “relative binding affinity (% rel to HI)” value in assay [1] is 22.6 % rel to HI; in assay [3], 88.8 % rel to HI; in assay [4] it was 155 % rel to HI; in assay [5] it was 188 % rel to HI; in assay [6] it was 260 % rel to HI. The Lipogenesis 1% HSA (% rel to HI) in assay [2] was 80.3 % rel to HI.

B2: A8R, A22K(N(eps)tetradecanedioyl-4xgGlu), B3E, B27E, B28R, desB29, desB30 human insulin (ligand)
chain 1: GIVEQCCRSICSLYQLENYCNK
chain 2: FVEQHLCGSHLVEALYLVCGERGFFYER
modifications: not fully specified; Lys A22 acylated on N(eps) with tetradecanedioyl-4xgGlu
notes: Two-chain acylated insulin analogue; also called Ex. No. 17
Turning to B2, the “relative binding affinity (% rel to HI)” value in assay [1] is 32.9 % rel to HI; in assay [3], 85.2 % rel to HI; in assay [4], 130 % rel to HI; in assay [5], 163 % rel to HI; in assay [6], 243 % rel to HI. Besides, the Lipogenesis 1% HSA (% rel to HI) in assay [2] is 70.7 % rel to HI.

B3: A8R, A22K(N(eps)tetradecanedioyl-4xgGlu), B3E, B26E, B27P, B28R, desB29, desB30 human insulin (ligand)
chain 1: GIVEQCCRSICSLYQLENYCNK
chain 2: FVEQHLCGSHLVEALYLVCGERGFFEPR
modifications: not fully specified; Lys A22 acylated on N(eps) with tetradecanedioyl-4xgGlu
notes: also called Ex. No. 16
As to B3, the “relative binding affinity (% rel to HI)” value in assay [1] is 61.8 % rel to HI; in assay [3], 113 % rel to HI; in assay [4] it was 168 % rel to HI; in assay [5] it was 229 % rel to HI; in assay [6], 317 % rel to HI. Besides, the Lipogenesis 1% HSA (% rel to HI) in assay [2] was 130 % rel to HI.

B4: A8R, A22K(N(eps)tetradecanedioyl-4xgGlu), B3E, B26E, B29R, desB30 human insulin (ligand)
chain 1: GIVEQCCRSICSLYQLENYCNK
chain 2: FVEQHLCGSHLVEALYLVCGERGFFETPR
modifications: not fully specified; Lys A22 acylated on N(eps) with tetradecanedioyl-4xgGlu
notes: Two-chain acylated insulin analogue; also called Ex. No. 15
Take B4: the “relative binding affinity (% rel to HI)” value in assay [1] is 10.8 % rel to HI; in assay [3], 108 % rel to HI; in assay [4] it was 174 % rel to HI; in assay [5] it was 237 % rel to HI; in assay [6], 294 % rel to HI. The Lipogenesis 1% HSA (% rel to HI) in assay [2] was 70.9 % rel to HI.

B5: A14E, A22K(N(eps)tetradecanedioyl-4xgGlu), B3E, B27E, B28E, B29R, desB30 human insulin (ligand)
chain 1: GIVEQCCTSICSLEQLENYCNK
chain 2: FVEQHLCGSHLVEALYLVCGERGFFYEER
modifications: not fully specified; Lys A22 acylated on N(eps) with tetradecanedioyl-4xgGlu
notes: Two-chain acylated insulin analogue; also called Ex. No. 4
For B5, the “relative binding affinity (% rel to HI)” value is 28.6 % rel to HI in assay [1]; 36.6 % rel to HI in assay [3]; 56.6 % rel to HI in assay [4]; 44.9 % rel to HI in assay [5]; 47.4 % rel to HI in assay [6]. Besides, in assay [2], the Lipogenesis 1% HSA (% rel to HI) was 15.4 % rel to HI.

B6: A14E, A22K(N(eps)tetradecanedioyl-gGlu-2xOEG), B3E, B27E, B28E, B29R, desB30 human insulin (ligand)
chain 1: GIVEQCCTSICSLEQLENYCNK
chain 2: FVEQHLCGSHLVEALYLVCGERGFFYEER
modifications: not fully specified; Lys A22 acylated on N(eps) with tetradecanedioyl-gGlu-2xOEG
notes: Two-chain acylated insulin analogue; also called Ex. No. 2
Take B6: the “relative binding affinity (% rel to HI)” value was 36.6 % rel to HI in assay [1]; 50.1 % rel to HI in assay [3]; 70.2 % rel to HI in assay [4]; 38.9 % rel to HI in assay [5]; 60.4 % rel to HI in assay [6]. Moreover, the Lipogenesis 1% HSA (% rel to HI) in assay [2] was 14.2 % rel to HI.

B7: A8R, A22K(N(eps)tetradecanedioyl-4xgGlu), B3E, B27E, B28E, B29R, desB30 human insulin (ligand)
chain 1: GIVEQCCRSICSLYQLENYCNK
chain 2: FVEQHLCGSHLVEALYLVCGERGFFYEER
modifications: not fully specified; Lys A22 acylated on N(eps) with tetradecanedioyl-4xgGlu
notes: Two-chain acylated insulin analogue; also called Ex. No. 24
For the molecule B7, the “relative binding affinity (% rel to HI)” value was 24 % rel to HI in assay [1]; 88.1 % rel to HI in assay [3]; 164 % rel to HI in assay [4]; 211 % rel to HI in assay [5]; 274 % rel to HI in assay [6]. In addition, the Lipogenesis 1% HSA (% rel to HI) in assay [2] was 78.6 % rel to HI.

B8: A14E, A22K(N(eps)tetradecanedioyl-4xgGlu), B3Q, B27E, B28E, B29R, desB30 human insulin (ligand)
chain 1: GIVEQCCTSICSLEQLENYCNK
chain 2: FVQQHLCGSHLVEALYLVCGERGFFYEER
modifications: not fully specified; Lys A22 acylated on N(eps) with tetradecanedioyl-4xgGlu
notes: also called Ex. No. 9
As to B8, the “relative binding affinity (% rel to HI)” value in assay [1] was 29.5 % rel to HI; in assay [3], 36.8 % rel to HI; in assay [4] it was 68.7 % rel to HI; in assay [5] it was 70.2 % rel to HI; in assay [6], 83 % rel to HI. Besides, in assay [2], the Lipogenesis 1% HSA (% rel to HI) was 30.1 % rel to HI.

B9: A14E, A22K(N(eps)tetradecanedioyl-4xgGlu), B3Q, B28D, B29R, desB30 human insulin (ligand)
chain 1: GIVEQCCTSICSLEQLENYCNK
chain 2: FVQQHLCGSHLVEALYLVCGERGFFYTDR
modifications: not fully specified; Lys A22 acylated on N(eps) with tetradecanedioyl-4xgGlu
notes: also called Ex. No. 8
Turning to B9, the “relative binding affinity (% rel to HI)” value in assay [1] was 42 % rel to HI; in assay [3], 34.3 % rel to HI; in assay [4] it was 59.1 % rel to HI; in assay [5] it was 64.9 % rel to HI; in assay [6], 95.6 % rel to HI. Further, in assay [2], the Lipogenesis 1% HSA (% rel to HI) was 17.2 % rel to HI.

B10: A14E, A22K(N(eps)hexadecanedioyl-gGlu-2xOEG), B3E, B27E, B28E, B29R, desB30 human insulin (ligand)
chain 1: GIVEQCCTSICSLEQLENYCNK
chain 2: FVEQHLCGSHLVEALYLVCGERGFFYEER
modifications: not fully specified; Lys A22 acylated on N(eps) with hexadecanedioyl-gGlu-2xOEG
notes: Two-chain acylated insulin analogue; also called Ex. No. 26
On to B10, for which the “relative binding affinity (% rel to HI)” value in assay [1] is 28.7 % rel to HI; in assay [3], 19.3 % rel to HI; in assay [4], 28.7 % rel to HI; in assay [5], 7.4 % rel to HI; in assay [6] it was 63.7 % rel to HI. In addition, the Lipogenesis 1% HSA (% rel to HI) in assay [2] was 2.6 % rel to HI.

B11: A14E, A22K(N(eps)hexadecanedioyl-4xgGlu), B3E, B27E, B28E, B29R, desB30 human insulin (ligand)
chain 1: GIVEQCCTSICSLEQLENYCNK
chain 2: FVEQHLCGSHLVEALYLVCGERGFFYEER
modifications: not fully specified; Lys A22 acylated on N(eps) with hexadecanedioyl-4xgGlu
notes: Two-chain acylated insulin analogue; also called Ex. No. 27
Consider B11, for which the “relative binding affinity (% rel to HI)” value in assay [1] is 14.3 % rel to HI; in assay [3], 16.5 % rel to HI; in assay [4] it was 23.2 % rel to HI; in assay [5], 5.4 % rel to HI; in assay [6] it was 114 % rel to HI. In addition, in assay [2], the Lipogenesis 1% HSA (% rel to HI) was 3.7 % rel to HI.
